Reference: article PMC8698322, “Autophagy Is Involved in the Viability of Overexpressing Thioredoxin o1 Tobacco BY-2 Cells under Oxidative Conditions” (Antioxidants, 2021)

Target: the molecule itself
Test: SDS-PAGE (reductant-free sample buffer) and Western blot with anti-His; recombinant HsATG4B treated with 1 mM or 3 mM H2O2 for 5 min at 25 °C in TBSK buffer (50 mM Tris-HCl, 140 mM NaCl, 30 mM KCl, pH 8.0); high-molecular-weight signal on the blot

B1: recombinant human ATG4B, His-tagged (His-HsATG4B) (enzyme, UniProt Q9Y4P1 1-393, looked up)
chain: MDAATLTYDTLRFAEFEDFPETSEPVWILGRKYSIFTEKDEILSDVASRLWFTYRKNFPAIGGTGPTSDTGWGCMLRCGQMIFAQALVCRHLGRDWRWTQRKRQPDSYFSVLNAFIDRKDSYYSIHQIAQMGVGEGKSIGQWYGPNTVAQVLKKLAVFDTWSSLAVHIAMDNTVVMEEIRRLCRTSVPCAGATAFPADSDRHCNGFPAGAEVTNRPSPWRPLVLLIPLRLGLTDINEAYVETLKHCFMMPQSLGVIGGKPNSAHYFIGYVGEELIYLDPHTTQPAVEPTDGCFIPDESFHCQHPPCRMSIAELDPSIAVGFFCKTEDDFNDWCQQVKKLSLLGGALPMFELVELQPSHLACPDVLNLSLDSSDVERLERFFDSEDEDFEILSL
notes: human cysteine protease ATG4B, recombinant, bought; printed size with His tag 47 kDa; No catalogue number is printed; source: bought: Abcam
B1: binds.
